Residue numbers refer to the chain shown, from its start. One block for each binder: values may come before it.
Columns and labels:
[1] = biological target: T1, recombinant mouse Dkk-2 (R&D systems Cat No. 2435-DK/CF) (mouse, UniProt Q9QYZ8 34-259, limits assumed); test: ELISA, plate-coated antigen
T1 construct: Bought; also called mDkk-2
T1 sequence (looked up): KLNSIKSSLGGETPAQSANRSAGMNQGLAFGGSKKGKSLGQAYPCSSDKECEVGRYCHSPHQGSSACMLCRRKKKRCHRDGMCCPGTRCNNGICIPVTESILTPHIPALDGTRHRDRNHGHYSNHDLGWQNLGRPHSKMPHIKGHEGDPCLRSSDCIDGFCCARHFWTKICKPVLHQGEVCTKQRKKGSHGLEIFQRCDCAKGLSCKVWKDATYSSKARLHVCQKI
Description: Dkk-1 specific antibodies were detected using the following ELISA based method. rhuDkk-1 protein (R&D systems cat no. 1096 DK/CF) was diluted to 1 ug/ml in coating buffer (Sigma carbonate/bicarbonate coating buffer pH 9.6 Cat No. C-3041 made up according to manufacturers instructions). 100 uls of Dkk-1 was added per well to Nunc Maxisorp 96 well plates and incubated overnight at 4° C. Wells were washed 4× with 250 uls/well of wash buffer (0.05% (v/v) Tween-20 (Sigma Cat no. P2287) in dPBS without Ca/Mg++ (Sigma Cat No. D8537)) then blocked with 200 uls/well of blocking buffer (1% PVA (Sigma cat no. 363170) (weight/volume) in dPBS (Sigma cat no.D8537)) for 2 hrs at room temperature. Blocking buffer was then removed by rapid decanting. […]
(§1) Binding of the test antibody to Dkk was determined by addition of a secondary antibody specific for the antibody species. […] Once developed, the plate absorbance was measured at 405 and 490 nm. Absorbance values were presented as the difference between absorbance at both wavelengths.
The ability of JC18 to bind to other species Dkk proteins was assessed using the ELISA protocol described above with the exception that plates were also coated with recombinant rat Dkk-1(R&D systems Cat No. 4010-DK/CF), mouse Dkk-1 (R&D systems Cat No. 1765-DK/CF), mouse Dkk-2 (R&D systems Cat No. 2435-DK/CF), and mouse Dkk-4 (R&D systems Cat No. 3105-DK/CF).

[2] = biological target: T2, Recombinant human Dkk-1 (R&D Systems cat no. 1096-DK/CF), 10xHis tag at the C terminal (human, UniProt O94907 32-266); test: SPR BIAcore 25C, JC18 captured by anti-mouse IgG, Dkk-1 injected
T2 construct: the actual N-terminus of the purified protein is marked in bold italic after residue 30, but the mark is an image lost in the text; also called rhuDkk-1; hDkk-1
T2 sequence: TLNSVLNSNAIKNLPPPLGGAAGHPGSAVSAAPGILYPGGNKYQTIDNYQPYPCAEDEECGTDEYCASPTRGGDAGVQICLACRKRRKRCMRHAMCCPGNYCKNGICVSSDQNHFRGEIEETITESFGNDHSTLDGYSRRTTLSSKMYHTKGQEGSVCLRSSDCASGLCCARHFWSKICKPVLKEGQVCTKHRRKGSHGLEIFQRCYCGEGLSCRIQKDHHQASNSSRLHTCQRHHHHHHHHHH
Description: (§2) For this assay, polyclonal anti-mouse IgG was amine-coupled to the BIAcore chip. Anti-Dkk-1 antibody JC18 is at 6.53 μg/ml, and was captured for 1 min at 5 μl/min. A five-fold series dilution of human, mouse or rat Dkk-1 (R&D Systems; from 0.4-250 nM) was injected for 1 min at 50-100 μl/min. Dissociation was monitored for 3-5 min. The chip was regenerated with two 30-sec pulses of 100 mM H₃PO₄.

[3] = biological target: T3, recombinant mouse Dkk-1 (R&D systems Cat No. 1765-DK/CF) (mouse, UniProt O54908 32-272); test: as above
T3 construct: Bought
T3 sequence (looked up): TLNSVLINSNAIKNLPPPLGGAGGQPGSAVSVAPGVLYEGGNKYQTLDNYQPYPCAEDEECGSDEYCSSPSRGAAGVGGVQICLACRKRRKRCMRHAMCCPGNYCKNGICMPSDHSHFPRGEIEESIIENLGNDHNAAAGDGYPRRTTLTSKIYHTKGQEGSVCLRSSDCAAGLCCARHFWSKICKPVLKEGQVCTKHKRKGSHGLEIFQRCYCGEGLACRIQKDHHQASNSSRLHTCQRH
Description: as §2

[4] = biological target: T4, recombinant rat Dkk-1 (R&D systems Cat No. 4010-DK/CF) (rat); test: as above
T4 construct: Bought
Description: as §2

[5] = biological target: T2, Recombinant human Dkk-1 (R&D Systems …); test: ELISA, plate coated with human DKK-1 at 1.0 ug/ml, JC18 titrated, OD read
Description: Dkk-1 specific antibodies were detected using the following ELISA based method. rhuDkk-1 protein (R&D systems cat no. 1096 DK/CF) was diluted to 1 ug/ml in coating buffer (Sigma carbonate/bicarbonate coating buffer pH 9.6 Cat No. C-3041 made up according to manufacturers instructions). 100 uls of Dkk-1 was added per well to Nunc Maxisorp 96 well plates and incubated overnight at 4° C. Wells were washed 4× with 250 uls/well of wash buffer (0.05% (v/v) Tween-20 (Sigma Cat no. P2287) in dPBS without Ca/Mg++ (Sigma Cat No. D8537)) then blocked with 200 uls/well of blocking buffer (1% PVA (Sigma cat no. 363170) (weight/volume) in dPBS (Sigma cat no.D8537)) for 2 hrs at room temperature. Blocking buffer was then removed by rapid decanting. Antibodies were diluted by consecutive 2-fold serial dilutions in blocking buffer and applied to each plate at 100 ul per well. Plates were incubated for 1 hour at RT and then washed as described above.
as §1

[6] = biological target: T5, recombinant human Dkk3 (R&D systems Cat No. 1118-DK/CF) (human, UniProt Q9UBP4 22-350); test: ELISA, plate coated with human DKK-3 at 1.0 ug/ml, JC18 titrated, OD read
T5 construct: Bought; also called hDkk-3
T5 sequence (Q9UBP4 22-350 limits assumed): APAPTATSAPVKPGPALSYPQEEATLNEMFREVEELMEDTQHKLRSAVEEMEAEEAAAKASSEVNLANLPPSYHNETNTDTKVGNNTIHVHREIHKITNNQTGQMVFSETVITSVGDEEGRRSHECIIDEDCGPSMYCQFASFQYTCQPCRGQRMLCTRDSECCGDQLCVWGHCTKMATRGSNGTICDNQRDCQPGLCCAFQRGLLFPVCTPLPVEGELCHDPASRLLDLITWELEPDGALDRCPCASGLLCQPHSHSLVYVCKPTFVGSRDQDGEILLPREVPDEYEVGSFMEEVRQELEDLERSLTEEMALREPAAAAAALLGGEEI

[7] = biological target: T2, Recombinant human Dkk-1 (R&D Systems …); test: SPR 37C (BIAcore/ProteOn), hDkk-1 series over captured IgG (taken so as kon is printed)

binding result [1]: no binding (tested: 5 ug/ml)
Kd [2]: 0.65 nM
koff [2]: 0.00207 s⁻¹
kon [2]: 3.18e+06 M⁻¹ s⁻¹
Kd [3]: 1.5 nM
koff [3]: 0.00254 s⁻¹
kon [3]: 1.74e+06 M⁻¹ s⁻¹
Kd [4]: 0.72 nM
koff [4]: 0.00275 s⁻¹
kon [4]: 3.8e+06 M⁻¹ s⁻¹
EC50 (read off the curve) [5]: ~3 ng/mL
binding result [6]: no binding (tested: 5 ug/ml)
B1: JC18 wildtype (mouse) monoclonal antibody (antibody, mouse IgG1, V domains shown)
VH: EVKLVESGGGLVKPGGSLKLSCAASGFTFSNYAMSWVRQTPEKRLEWVASISGGGDTYYPDSVKGRFTISRDNVRNILYLQMSSLRSEDTAMYYCATSLENYAMDYWGQGTSITVSS
VL: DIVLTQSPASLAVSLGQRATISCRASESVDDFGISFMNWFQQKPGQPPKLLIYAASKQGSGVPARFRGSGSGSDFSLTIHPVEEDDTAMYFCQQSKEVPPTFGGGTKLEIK
notes: also called muMabJC18; MabJC18

Kd [7]: 0.03 nM
koff [7]: 8.55e-05 s⁻¹
kon [7]: 2.88e+06 M⁻¹ s⁻¹
B2: 2E11.33L (antibody, V domains shown)
VH: EVQLVESGGGLVQPGGSLRLSCAASGFTFSSYAISWVRQAPGKGLEWVASVSGTGLGFQTYYPDSVKGRFTISRDNAKNSLYLQMNSLRAEDTAVYYCATSLRNYAFDYWGQGTTVTVSS
VL: EIVLTQSPATLSLSPGERATLSCRASESVDDFGISFINWYQQKPGQAPRLLIYAGSKQGSGIPARFSGSGSGTDFTLTISSLEPEDFAVYYCQQLKEVPPTFGGGTKVEIK

Kd [7]: 0.037 nM
koff [7]: 8.55e-05 s⁻¹
kon [7]: 2.31e+06 M⁻¹ s⁻¹
B3: 4F10.33L (antibody, V domains shown)
VH: B2 VH with R103K
VL: B2 VL

Reference: US20130071921A1 (Pfizer, published 2013)
